The text below walks through data of patent US20250230251A1 (Bristol-Myers Squibb, published 2025).

T1: IL-18:IL-18Rα complex (human, UniProt Q14116 37-193; Q13478 19-329, limits assumed)
T1 construct: Made by mixing 1.6 uM IL-18 with 100 nM IL-18Ra-Fc-His; also called complexed IL-18: IL-18Rα; not shown: Fc and His tag of the bought fusion protein, not described
T1 sequence (looked up) 1: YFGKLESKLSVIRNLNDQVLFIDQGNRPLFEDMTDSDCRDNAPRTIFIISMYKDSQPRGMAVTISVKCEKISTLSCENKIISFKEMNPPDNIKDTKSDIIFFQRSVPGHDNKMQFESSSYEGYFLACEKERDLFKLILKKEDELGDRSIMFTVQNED
T1 sequence (looked up) 2: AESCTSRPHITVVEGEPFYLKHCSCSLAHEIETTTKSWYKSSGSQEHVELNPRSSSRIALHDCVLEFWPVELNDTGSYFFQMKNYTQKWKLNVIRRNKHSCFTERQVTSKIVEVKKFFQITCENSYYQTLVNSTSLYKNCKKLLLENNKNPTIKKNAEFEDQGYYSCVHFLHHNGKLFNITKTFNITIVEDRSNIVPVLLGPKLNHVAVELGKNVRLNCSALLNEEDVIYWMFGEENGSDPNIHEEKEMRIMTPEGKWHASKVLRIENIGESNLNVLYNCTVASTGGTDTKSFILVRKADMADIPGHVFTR

T2: human IL-18Rβ on cells (human, UniProt O95256 20-599)
T2 sequence: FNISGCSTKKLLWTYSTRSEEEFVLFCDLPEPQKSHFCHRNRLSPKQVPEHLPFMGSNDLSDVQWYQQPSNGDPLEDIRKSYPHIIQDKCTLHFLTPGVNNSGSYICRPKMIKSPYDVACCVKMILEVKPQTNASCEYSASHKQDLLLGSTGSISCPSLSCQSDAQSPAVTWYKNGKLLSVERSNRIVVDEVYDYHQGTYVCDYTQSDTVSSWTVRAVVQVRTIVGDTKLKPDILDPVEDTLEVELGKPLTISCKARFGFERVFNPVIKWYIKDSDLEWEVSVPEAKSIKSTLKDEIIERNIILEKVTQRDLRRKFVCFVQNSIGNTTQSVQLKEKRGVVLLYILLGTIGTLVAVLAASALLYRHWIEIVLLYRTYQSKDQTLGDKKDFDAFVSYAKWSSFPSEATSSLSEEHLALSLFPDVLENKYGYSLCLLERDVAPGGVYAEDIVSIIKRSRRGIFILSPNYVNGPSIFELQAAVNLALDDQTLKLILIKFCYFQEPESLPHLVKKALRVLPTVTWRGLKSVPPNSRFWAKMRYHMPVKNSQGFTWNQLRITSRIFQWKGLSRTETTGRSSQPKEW

T3: cyIL-18Rβ-HisAvi (cynomolgus monkey)
T3 construct: Soluble analyte in SPR; also called cyno IL-18Rβ; cynomolgus monkey IL-18Rβ
T3 chain: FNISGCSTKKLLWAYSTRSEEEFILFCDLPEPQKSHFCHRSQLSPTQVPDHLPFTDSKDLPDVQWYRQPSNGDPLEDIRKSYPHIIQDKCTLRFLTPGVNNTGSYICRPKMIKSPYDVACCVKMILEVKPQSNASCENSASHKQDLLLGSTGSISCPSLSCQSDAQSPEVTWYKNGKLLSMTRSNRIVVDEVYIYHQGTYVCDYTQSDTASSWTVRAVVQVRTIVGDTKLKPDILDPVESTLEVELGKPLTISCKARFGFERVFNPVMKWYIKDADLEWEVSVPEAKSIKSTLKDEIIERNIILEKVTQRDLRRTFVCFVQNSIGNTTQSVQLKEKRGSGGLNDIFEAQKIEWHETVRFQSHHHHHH

B1: huIL-18Rβ-HisAvi (receptor)
chain: FNISGCSTKKLLWTYSTRSEEEFVLFCDLPEPQKSHFCHRNRLSPKQVPEHLPFMGSNDLSDVQWYQQPSNGDPLEDIRKSYPHIIQDKCTLHFLTPGVNNSGSYICRPKMIKSPYDVACCVKMILEVKPQTNASCEYSASHKQDLLLGSTGSISCPSLSCQSDAQSPAVTWYKNGKLLSVERSNRIVVDEVYDYHQGTYVCDYTQSDTVSSWTVRAVVQVRTIVGDTKLKPDILDPVEDTLEVELGKPLTISCKARFGFERVFNPVIKWYIKDSDLEWEVSVPEAKSIKSTLKDEIIERNIILEKVTQRDLRRKFVCFVQNSIGNTTQSVQLKEKR
modifications: biotinylated in the Octet blocking assay
notes: Soluble analyte in all SPR runs; captured on streptavidin sensors in the Octet assay; also called human IL-18Rβ; human IL-18Rβ-Avi-His
B2: P20-V4 (antibody, human IgG1, kappa, name in Kabat numbering)
heavy: QVQLQESGPGLVKPSETLSLTCTVSGGSINNYYWSWIRQPPGKGLEWIGYIFYSGTTNYNPSLKSRVTISVDTSKNQFSLKLSSVTAADTAVYYCARDVGIAARNSYYYVMDVWGQGTTVTVSSASTKGPSVFPLAPSSKSTSGGTAALGCLVKDYFPEPVTVSWNSGALTSGVHTFPAVLQSSGLYSLSSVVTVPSSSLGTQTYICNVNHKPSNTKVDKRVEPKSCDKTHTCPPCPAPEAEGAPSVFLFPPKPKDTLMISRTPEVTCVVVDVSHEDPEVKFNWYVDGVEVHNAKTKPREEQYNSTYRVVSVLTVLHQDWLNGKEYKCKVSNKALPAPIEKTISKAKGQPREPQVYTLPPSREEMTKNQVSLTCLVKGFYPSDIAVEWESNGQPENNYKTTPPVLDSDGSFFLYSKLTVDKSRWQQGNVFSCSVMHEALHNHYTQKSLSLSPG
light: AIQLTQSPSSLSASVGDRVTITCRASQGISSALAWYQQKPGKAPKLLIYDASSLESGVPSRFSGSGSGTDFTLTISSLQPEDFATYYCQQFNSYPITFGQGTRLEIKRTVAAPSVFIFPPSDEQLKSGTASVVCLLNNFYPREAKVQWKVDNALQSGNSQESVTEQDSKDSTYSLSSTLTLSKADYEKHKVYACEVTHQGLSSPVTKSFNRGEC
notes: built from the chains of the parent P20 with the printed mutations
B3: P20-V5 (antibody, human IgG1, kappa, name in Kabat numbering)
heavy: B2 heavy with E6Q
light: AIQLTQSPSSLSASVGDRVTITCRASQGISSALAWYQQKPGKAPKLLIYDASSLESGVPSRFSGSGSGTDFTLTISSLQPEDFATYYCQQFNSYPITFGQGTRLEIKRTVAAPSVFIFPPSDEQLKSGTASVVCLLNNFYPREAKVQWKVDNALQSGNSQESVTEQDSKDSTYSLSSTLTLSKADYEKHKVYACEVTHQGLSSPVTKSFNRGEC
notes: built from the chains of the parent P20 with the printed mutation

Where a chain is given by its changes, count along the chain named.

One assay concerns the target T1, IL-18:IL-18Rα complex. Description: Octet RED384 BLI, complex on sensor-captured biotin-hIL-18Rβ-Avi-His after the 50 nM antibody step. In general terms: In BLI a coated tip is dipped into the sample, and binding shifts an interference pattern.
For assay [1], the target named is B1. Description: SPR T200, pH 7.4 and pH 6.
The target in the next assay is T2, human IL-18Rβ on cells. As to the kind of experiment: cell-based or functional assay.
The target of assay [2] is B1. As to the kind of experiment: SPR T200, mAb on anti-hFc, 37C, pH 6.
Assay [3] has as its target T3, cyIL-18Rβ-HisAvi. Description: SPR T200, mAb on anti-hFc, 37C, pH 6.
The target in assay [4] is B1. As to the kind of experiment: SPR T200, mAb on anti-hFc, 37C, pH 7.4.
Assay [5] has as its target T3, cyIL-18Rβ-HisAvi. As to the kind of experiment: SPR T200, mAb on anti-hFc, 37C, pH 7.4.

For B1, in the assay with IL-18:IL-18Rα complex, the binding result is on record as “binds”.

As for B2, the “fold weaker binding than the parent P20” value with huIL-18Rβ-HisAvi [1] turned out to be 100 fold. In addition, in the assay with human IL-18Rβ on cells, the “IC50, LPS+IL-12 dependent IFNg production, human whole blood” value was found to be 37.6 nM. Further, the Kd (commonly the free concentration of one partner at which half of the binding sites on the other are occupied at equilibrium, for simple one-to-one binding) with huIL-18Rβ-HisAvi [2] was found to be 14 nM; with cyIL-18Rβ-HisAvi [3], 42 nM; in the assay with huIL-18Rβ-HisAvi [4], 42 nM; with cyIL-18Rβ-HisAvi [5], 88 nM. Moreover, the off-rate (koff) (as a rule, the rate constant with which the complex falls apart) came to 0.0037 s⁻¹ in the assay with huIL-18Rβ-HisAvi [2], 0.002 s⁻¹ with cyIL-18Rβ-HisAvi [3], 0.0018 s⁻¹ with huIL-18Rβ-HisAvi [4] and 0.002 s⁻¹ in the assay with cyIL-18Rβ-HisAvi [5]. Also, the kon (commonly the second-order rate constant of association) with huIL-18Rβ-HisAvi [2] is 270000 M⁻¹ s⁻¹; with cyIL-18Rβ-HisAvi [3] it was 48000 M⁻¹ s⁻¹; in the assay with huIL-18Rβ-HisAvi [4] it was 44000 M⁻¹ s⁻¹; with cyIL-18Rβ-HisAvi [5], 23000 M⁻¹ s⁻¹.

For B3, the “fold weaker off-rate and KD than the parent P20” value with huIL-18Rβ-HisAvi [1] was determined as 10 fold. Besides, the “IC50, LPS+IL-12 dependent IFNg production, human whole blood” value with human IL-18Rβ on cells was found to be 21.2 nM. The equilibrium dissociation constant (Kd) in the assay with huIL-18Rβ-HisAvi [2] came out at 1.8 nM; in the assay with cyIL-18Rβ-HisAvi [3], 5.5 nM; in the assay with huIL-18Rβ-HisAvi [4] it was 19 nM; with cyIL-18Rβ-HisAvi [5] it was 40 nM. Moreover, the koff in the assay with huIL-18Rβ-HisAvi [2] came out at 0.00059 s⁻¹; with cyIL-18Rβ-HisAvi [3], 0.00097 s⁻¹; with huIL-18Rβ-HisAvi [4], 0.0011 s⁻¹; with cyIL-18Rβ-HisAvi [5], 0.0013 s⁻¹. The kon with huIL-18Rβ-HisAvi [2] worked out at 340000 M⁻¹ s⁻¹; with cyIL-18Rβ-HisAvi [3] it was 180000 M⁻¹ s⁻¹; with huIL-18Rβ-HisAvi [4] it was 56000 M⁻¹ s⁻¹; with cyIL-18Rβ-HisAvi [5] it was 34000 M⁻¹ s⁻¹.
